Assay results as given in US20230121511A1 (Chugai, published 2023).

Key:
Human CD3eg linker = biological target: T1, Human CD3eg linker (human); assay: SPR (Biacore 8K), antibody captured on anti-human Fc, recombinant human CD3 as analyte, 25 C, 1:1 model
T1 construct: Single-chain soluble construct expressed in FreeStyle293F cells; used as the SPR analyte; also called recombinant human CD3
T1 chain: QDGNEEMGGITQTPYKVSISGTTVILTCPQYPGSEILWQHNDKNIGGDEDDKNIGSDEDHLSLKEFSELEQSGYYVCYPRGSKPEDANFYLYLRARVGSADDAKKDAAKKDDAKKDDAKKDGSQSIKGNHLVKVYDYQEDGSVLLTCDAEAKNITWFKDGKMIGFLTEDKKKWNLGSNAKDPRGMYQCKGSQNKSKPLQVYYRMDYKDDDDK
Description: Binding affinity of Dual-Fab antibodies (Dual-Ig) to human CD3 were assessed at 25 degrees C. using Biacore 8K instrument (GE Healthcare). Anti-human Fc (GE Healthcare) was immobilized onto all flow cells of a CM4 sensor chip using amine coupling kit (GE Healthcare). Antibodies were captured onto the anti-Fc sensor surfaces, then recombinant human CD3 or CD137 was injected over the flow cell. All antibodies and analytes were prepared in ACES pH 7.4 containing 20 mM ACES, 150 mM NaCl, 0.05% Tween 20, 0.005% NaN₃. Sensor surface was regenerated each cycle with 3M MgCl₂. […] CD137 binding affinity assay was conducted in same condition except assay temperature was set at 37 degrees C.

[1] = biological target: T2, DualAE05-SG1202k/SG1201hV11 (engineered Cys at position 191 (EU) of CH1, unpaired); assay: SPR (Biacore T200, 37 C), tool antibody captured on mouse anti-human Fc, anti-CH1 antibody injected
T2 construct: Heterodimeric antibody with S191C in only one Fab arm, so it exists only in the “unpaired cysteines” form; not shown: light chain constant region
Description: (§1) Biacore binding experiments were performed to characterize binding activities of the anti-CH1 antibodies prepared in Example 3.2 to DualAE05-SG1201, DualAE05-SG1202, DualAE05-SG1202k/SG1201hV11, IgG1_001 and IgG4_001 at 37 degrees C. using Biacore T200 instrument (GE Healthcare). Specifically, mouse anti-human Fc (GE Healthcare) was immobilized onto all flow cells of a CM4 sensor chip using amine coupling kit (GE Healthcare). Tool antibodies DualAE05-SG1201, DualAE05-SG1202, DualAE05-SG1202k/SG1201hV11, IgG1_001 and IgG4_001 were captured onto flow cell, and then anti-CH1 antibodies obtained from Example 3.2 was injected over all the flow cells. All antibodies were prepared in ACES pH 7.4 containing 20 mM ACES, 150 mM NaCl, 0.05% Tween 20, 0.005% NaN₃. Sensor surface was regenerated each cycle with 3M MgCl₂.

IgG4_001 = biological target: T3, IgG4_001; assay: as above
T3 construct: Tool antibody for screening; captured on mouse anti-human Fc; copies: 2 + 2
Description: as §1

DualAE05-SG1201 = biological target: T4, DualAE05-SG1201; assay: as above
T4 construct: Bivalent tool antibody with human IgG1 CH1 without S191C
Description: as §1

IgG1_001 = biological target: T5, IgG1_001; assay: as above
T5 construct: Tool antibody for screening; captured on mouse anti-human Fc; copies: 2 + 2
Description: as §1

DualAE05-SG1202 = biological target: T6, DualAE05-SG1202 (Heavy chain pos 202 is the engineered Cys (S191C, EU). It can form an inter-Fab disulfide between the two heavy chains, so the preparation is a mixture of the paired and unpaired cysteine forms.); assay: as above
T6 construct: Corresponds to DualAE05-SG1201 with S191C in both Fab arms
Description: as §1

T5 sequence (VH, as listed by the source limits assumed, chain 1 of 2): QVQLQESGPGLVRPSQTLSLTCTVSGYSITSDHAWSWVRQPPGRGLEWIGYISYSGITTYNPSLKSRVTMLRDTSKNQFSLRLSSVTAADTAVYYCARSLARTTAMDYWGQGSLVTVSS
T5 sequence (VL, as listed by the source limits assumed, chain 2 of 2): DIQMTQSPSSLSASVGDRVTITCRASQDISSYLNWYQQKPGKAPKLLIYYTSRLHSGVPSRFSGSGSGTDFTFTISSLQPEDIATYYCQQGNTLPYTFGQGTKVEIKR
T3 sequence (VH, as listed by the source limits assumed): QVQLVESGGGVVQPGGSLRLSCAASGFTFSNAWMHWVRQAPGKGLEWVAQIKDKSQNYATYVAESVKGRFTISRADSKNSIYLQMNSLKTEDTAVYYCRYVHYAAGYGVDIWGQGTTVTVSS

B1: H1573L0581 (antibody, V domains shown)
VH: QVQLVESGGGLVQPGRSLRLSCAASGFKFSNVWFHWVRQAPGKGLEWVAQIKDYYNAYAAYYAPSVKGRFTISRDDSKNSIYLQMNSLKTEDTAVYYCHYVHYASASTLLPAFGVDAWGQGTTVTVSS
VL: DIVMTQSPLSLPVTPGEPASISCQPSQEVVHMNRNTYLHWYQQKPGQAPRLLIYKVSNRFPGVPDRFSGSGSGTDFTLKISRVEAEDVGVYYCAQGTSHPFTFGQGTKLEIK
notes: Dual-Fab antibody (Dual-Ig) captured via anti-human Fc; also called DualAE07; dBBDu183H1573/dBBDu072L0581
Kd (Human CD3eg linker): 156 nM

B2: FAB0060hh (antibody, V domains shown)
VH: QSLEESGGRLVTPGTPLTLTCTASGFSLSTYWMNWVRQAPGKGLEWIGTINIDGSAAYASWAKGRFTISRTSTTVDLKAASPTTEDTATYFCATYGGDIWGPGTLVTVSS
VL: DVVMTQTPASVSEPVGGTVTIKCQASQSISTALAWYQQKPGQPPKLLIYGASTLESGVPSRFKGSGSGTEFTLTISDLECADAATYYCQCTYYGNNYGNAFGGGTKVEIK
notes: Conformation-specific anti-CH1 antibody from immunised rabbits
Relative binding activity to tool antibody (normalized against RU binding value for IgG1_001) [1]: 0.957

B3: FAB0133hh (antibody, V domains shown)
VH: QSLEESGGRLVTPGTPLTLTCTASGFSLSTYYMNWVRQAPGKGLEWIGTITIDGTAYYASWAKGRFTISRTSTTVDLKAASPTTEDTATYFCARYDGDIWGPGTLVTVSS
VL: DVVMTQTPASVSEPVGGTVTIKCQASQSISTALAWYQQKPGQPPKLLIHGASILESGVPSRFKGSGSGTEFTLTISDLECADVATYYCQCTYYGISYGNAFGGGTKVEIK
notes: as for B2
Relative binding activity to tool antibody (normalized against RU binding value for IgG1_001) (IgG4_001): -0.017
Relative binding activity to tool antibody (normalized against RU binding value for IgG1_001) (DualAE05-SG1201): 1.02
Relative binding activity to tool antibody (normalized against RU binding value for IgG1_001) (IgG1_001): 1
Relative binding activity to tool antibody (normalized against RU binding value for IgG1_001) [1]: 0.922
Relative binding activity to tool antibody (normalized against RU binding value for IgG1_001) (DualAE05-SG1202): 0.206

B4: FAB0059ff (antibody, V domains shown)
VH: QSLEESGGRLVTPGTPLTLTCTASGFSLSSYWMNWVRQAPGKGLEWIGTVNIDGSTDYASWAKGRFTISRTSTTVDLKAASPTTEDTATYFCARYGGDIWGPGTLVIVSL
VL: DVVMTQTPASVSEPVGGTVTIKCQASQSISTALAWYQQKPGQPPKLLIYGASTLESGVPSRFKGSGSGTEFTLTISDLECADAATYYCQCTYYGSSYGNAFGGGTKVEIK
notes: as for B2
Relative binding activity to tool antibody (normalized against RU binding value for IgG1_001) [1]: 0.929

B5: FAB0135hh (antibody, V domains shown)
VH: QSLEESGGRLVTPGTPLTLTCTASGFSLSSYYMSWVRQAPGEGLEYIGWISSDGSTYYASWAKGRFTISRTSTTVDLKITSPTTEDTATYFCARDYAASNIWGPGTLVTVSS
VL: DVVMTQTPASVSEPVGGTVTIKCQASENIGNALAWYQQKPGQRPKLLIYGASNLESGVPSRFKGSRSGTEYTLTISDLECDDAATYYCQSTYYSSSYSNPFGGGTKVEIK
notes: as for B2
Relative binding activity to tool antibody (normalized against RU binding value for IgG1_001) [1]: 0.96
